Changes are numbered by the printed parent chain. Numbers in names are those of the source. Blank lines part the entries; values can stand above or below the binder they belong to.
Key:
[1] = biological target: T1, human CD200RLa (Sino Biological, 11620-H08H) recombinant protein (human, UniProt Q6Q8B3 24-239); assay: ELISA, plate-bound human CD200RLa (2 ug/mL), antibody 0.0192-300 nM, O.D 450 nm; panel 'recombinant human CD200RLa'
T1 construct: Bought; construct not described
T1 sequence (looked up): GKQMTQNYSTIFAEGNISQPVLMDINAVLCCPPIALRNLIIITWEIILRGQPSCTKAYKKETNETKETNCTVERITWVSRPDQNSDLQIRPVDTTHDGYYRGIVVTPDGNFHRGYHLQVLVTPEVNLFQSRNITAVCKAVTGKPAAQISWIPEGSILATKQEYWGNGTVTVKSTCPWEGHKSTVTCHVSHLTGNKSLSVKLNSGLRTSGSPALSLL
Protocol: 96-well plates were coated with human CD200RLa (Sino Biological, 11620-H08H) and monkey CD200RLa (Sino Biological, 11576-C02H) recombinant proteins at a concentration of 2 μg/mL at 4° C. for 16 hours, and blocked with 3% skim milk for 1 hour. […] Color was developed with a TMB substrate solution (Thermo Scientific, 34029, 1-Step™ Ultra TMB-ELISA Substrate Solution). The color reaction was stopped with stop solution (Invitrogen, SS04, ELISA Stop Solution).

[2] = biological target: T2, human CD200R1 expressed on cells (Jurkat-CD200R1, U937-CD200R1, HH cells) (human, UniProt Q8TD46 25-348); assay: flow cytometry, HH cells; drawn table, row EC50
T2 construct: whole, on cells; also called HH (CRL-2105); cell surface-expressed CD200R1
T2 sequence (looked up): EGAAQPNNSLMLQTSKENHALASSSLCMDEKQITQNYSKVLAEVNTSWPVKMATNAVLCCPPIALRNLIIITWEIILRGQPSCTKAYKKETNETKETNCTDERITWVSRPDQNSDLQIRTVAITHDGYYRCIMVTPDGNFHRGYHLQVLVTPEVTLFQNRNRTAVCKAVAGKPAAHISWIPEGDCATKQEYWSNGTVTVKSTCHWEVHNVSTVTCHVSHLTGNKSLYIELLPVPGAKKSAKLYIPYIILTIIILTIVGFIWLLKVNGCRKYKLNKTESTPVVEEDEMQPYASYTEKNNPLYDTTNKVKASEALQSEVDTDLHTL

[3] = biological target: T2, human CD200R1 expressed on cells …; assay: flow cytometry, HH cells; drawn table
[4] = biological target: T3, human CD200R1 recombinant protein (construct not stated) (human, UniProt Q8TD46 27-266, limits assumed); assay: hybridoma ELISA on human CD200R1
T3 sequence (looked up): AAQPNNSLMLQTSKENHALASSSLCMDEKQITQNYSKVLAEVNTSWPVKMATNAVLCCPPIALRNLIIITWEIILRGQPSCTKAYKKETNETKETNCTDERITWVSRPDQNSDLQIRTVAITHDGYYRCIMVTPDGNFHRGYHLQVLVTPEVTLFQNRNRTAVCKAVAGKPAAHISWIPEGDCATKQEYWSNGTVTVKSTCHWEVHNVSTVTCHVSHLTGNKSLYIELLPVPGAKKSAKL

[5] = biological target: T4, mouse CD200R1 protein (R&D systems, 2554-CD) (mouse, UniProt Q9ES57 26-238, limits assumed); assay: ELISA, plate-bound mouse CD200R1 (2 ug/mL), IgG 0.0192-300 nM, OD 450 nm; panel 'mouse CD200R1'
T4 construct: Bought; construct not described
T4 sequence (looked up): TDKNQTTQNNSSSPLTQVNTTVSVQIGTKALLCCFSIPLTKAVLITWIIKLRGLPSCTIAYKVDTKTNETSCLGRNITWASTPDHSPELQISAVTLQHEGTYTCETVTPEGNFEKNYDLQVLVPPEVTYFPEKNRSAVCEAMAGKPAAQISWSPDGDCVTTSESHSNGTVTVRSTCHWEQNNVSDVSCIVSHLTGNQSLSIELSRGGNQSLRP
Protocol: 96-well plates were coated with human CD200R1 (R&D systems, 3414-CD) and mouse CD200R1 protein (R&D systems, 2554-CD) at a concentration of 2 μg/mL at 4° C. for 16 hours and then were blocked with 3% skim milk.
Color was developed with a TMB substrate solution (Thermo Scientific, 34029, 1-Step™ TMB-ELISA Ultra Substrate Solution). The color reaction was stopped with stop solution (Invitrogen, SS04, ELISA Stop Solution). The absorbance was measured at an optical density of 450 nm.

binding result [1]: no binding (tested: 300 nM)
B1: P001017 (chimeric OX108) (antibody, V domains shown)
VH: EVKLQQSGPELVKPGASVKMSCKASGYTFTSYVMHWVKQKPGQGLEWIGYINPYNDDTNYNEKFKGKATLTSDKSSSTAYMELSSLTSEDSAVYYCAREDYYGSRWGYWGQGTTLTVSS
VL: DIVLTQSPASLAVSLGQRATISCRASKSVSTSGYSYMHWYQQKPGQPPKLLIYLASNLESGVPARFSGSGSGTDFTLNIHPVEEEDAATYYCQHSRELLTFGAGTKLELK
notes: also called QX108; murine anti-CD200R1 antibody OX108

B2: P001018 scFv mutant H3-Y102K (scFv)
scFv: QVQLVQSGAEVKKPGASVKVSCKASGYTFTSYVMHWVRQAPGQGLEWMGYINPYNDDTNYNEKFKGRVTMTRDTSTSTVYMELSSLRSEDTAVYYCAREDYYGSRWGKWGQGTLVTVSSGGGGSGGGGSGGGGSDIVLTQSPASLAVSPGQRATITCRASKSVSTSGYSYMHWYQQKPGQPPKLLIYLASNLESGVPARFSGSGSGTDFTLTINPVEANDTANYYCQHSRELLTFGQGTKVEIK
EC50 [2]: 9.79 nM
Geo mean (%) at 0.05 nM [3]: 2.1%
Geo mean (%) at 0.19 nM [3]: 6.1%
Geo mean (%) at 0.78 nM [3]: 17.1%
Geo mean (%) at 3.125 nM [3]: 35.3%
Geo mean (%) at 12.5 nM [3]: 67%
Geo mean (%) at 50 nM [3]: 85.7%
Geo mean (%) at 200 nM [3]: 104%
Geo mean (%) at 800 nM [3]: 120%

B3: P001018 scFv mutant L3-R92S (scFv)
scFv: B2 scFv with K108Y, R230S
EC50 [2]: 7.76 nM
Geo mean (%) at 0.05 nM [3]: 1.7%
Geo mean (%) at 0.19 nM [3]: 4.5%
Geo mean (%) at 0.78 nM [3]: 12%
Geo mean (%) at 3.125 nM [3]: 33.9%
Geo mean (%) at 12.5 nM [3]: 73.2%
Geo mean (%) at 50 nM [3]: 90.1%
Geo mean (%) at 200 nM [3]: 108%
Geo mean (%) at 800 nM [3]: 116%

B4: P001018 scFv mutant L3-R92H (scFv)
scFv: B2 scFv with K108Y, R230H
EC50 [2]: 6.14 nM
Geo mean (%) at 0.05 nM [3]: 3.3%
Geo mean (%) at 0.19 nM [3]: 8.7%
Geo mean (%) at 0.78 nM [3]: 19.8%
Geo mean (%) at 3.125 nM [3]: 43.8%
Geo mean (%) at 12.5 nM [3]: 84.1%
Geo mean (%) at 50 nM [3]: 100%

B5: P001018 scFv mutant L3-T96R (scFv)
scFv: B2 scFv with K108Y, T234R
EC50 [2]: 7.26 nM
Geo mean (%) at 0.05 nM [3]: 2.7%
Geo mean (%) at 0.19 nM [3]: 7.5%
Geo mean (%) at 0.78 nM [3]: 19.4%
Geo mean (%) at 3.125 nM [3]: 40.2%
Geo mean (%) at 12.5 nM [3]: 79.5%
Geo mean (%) at 50 nM [3]: 91.1%
Geo mean (%) at 200 nM [3]: 116%
Geo mean (%) at 800 nM [3]: 123%

B6: P001018 scFv mutant H3-Y102T (scFv)
scFv: B2 scFv with K108T
EC50 [2]: 9.43 nM
Geo mean (%) at 0.05 nM [3]: 2%
Geo mean (%) at 0.19 nM [3]: 5.8%
Geo mean (%) at 0.78 nM [3]: 15.5%
Geo mean (%) at 3.125 nM [3]: 33.2%
Geo mean (%) at 12.5 nM [3]: 69.7%
Geo mean (%) at 50 nM [3]: 91.6%
Geo mean (%) at 200 nM [3]: 107%
Geo mean (%) at 800 nM [3]: 121%

B7: P001018 scFv mutant L3-L94S (scFv)
scFv: B2 scFv with K108Y, L232S
EC50 [2]: 9.52 nM
Geo mean (%) at 0.05 nM [3]: 1.8%
Geo mean (%) at 0.19 nM [3]: 5.9%
Geo mean (%) at 0.78 nM [3]: 17.3%
Geo mean (%) at 3.125 nM [3]: 35.5%
Geo mean (%) at 12.5 nM [3]: 62%
Geo mean (%) at 50 nM [3]: 76.6%
Geo mean (%) at 200 nM [3]: 98.7%
Geo mean (%) at 800 nM [3]: 110%

B8: P001018 scFv mutant L3-L94H (scFv)
scFv: B2 scFv with K108Y, L232H
EC50 [2]: 9.4 nM
Geo mean (%) at 0.05 nM [3]: 2.2%
Geo mean (%) at 0.19 nM [3]: 5.6%
Geo mean (%) at 0.78 nM [3]: 18.5%
Geo mean (%) at 3.125 nM [3]: 35.3%
Geo mean (%) at 12.5 nM [3]: 59.1%
Geo mean (%) at 50 nM [3]: 75.2%
Geo mean (%) at 200 nM [3]: 96.7%
Geo mean (%) at 800 nM [3]: 105%

B9: P001018 scFv mutant L3-L95D (scFv)
scFv: B2 scFv with K108Y, L233D
EC50 [2]: 13.1 nM
Geo mean (%) at 0.05 nM [3]: 2%
Geo mean (%) at 0.19 nM [3]: 5.6%
Geo mean (%) at 0.78 nM [3]: 16.4%
Geo mean (%) at 3.125 nM [3]: 35.6%
Geo mean (%) at 12.5 nM [3]: 73.8%
Geo mean (%) at 50 nM [3]: 95.3%
Geo mean (%) at 200 nM [3]: 119%
Geo mean (%) at 800 nM [3]: 145%

B10: 6A8 (hybridoma clone) (antibody, V domains shown)
VH: QVQLQQPGAELVKPGAPVKLSCKASGYTFTSYWMNWVKQRPGRGLEWIGRIDPSDSETHYNQKFKDKATLTVDKSSSTAYIQLSSLTSEDSAVYYCARSGGWLPGFAYWGQGTLVTVSA
VL: ENVLTQSPAIMSASPGEKVTMTCSASSSLSYMLWYQQKSSTSPKLWIYDTSKLASGVPGRFSGSGSGNSYSLTISSMEAEDVGTYYCFQGSGNPLMYTFGGGTKLEIK
ELISA O.D. [4]: ≥ 1.5 O.D.

B11: 3G4 (hybridoma clone) (antibody, V domains shown)
VH: B10 VH with Y27F, F29L, S84T
VL: B10 VL with S26R, L29V, L33H, S40R, G83A, N93D
ELISA O.D. [4]: ≥ 1.5 O.D.

B12: 1F1 (hybridoma clone) (antibody, V domains shown)
VH: B10 VH with L11F, S54A, T58I, L83F
VL: B10 VL with S30I, L33H, S75N, G83A, N93Y
ELISA O.D. [4]: ≥ 1.5 O.D.

B13: 6C3 (hybridoma clone) (antibody, V domains shown)
VH: QVQLQQPGAELVRPGASVKLSCKASAYTFTSYWMNWVKQRPEQGLEWIGRIDPYDSETHYNQKFKDKAILTVDKSSSTAYMQLSSLTSEDSAVYYCARVDGNHLFDYWGQGTTLTVSS
VL: DIKMTQSPSSMYASLGERVTITCKASQDINSYLSWFQQKPGKSPKTLIYRANRLVDGVPSRFSGSGSGQDYSLTISSLEYEDMGIYYCLQYDEFPYTFGGGTKLEIK
ELISA O.D. [4]: ≥ 1.5 O.D.

B14: 5E9 (hybridoma clone) (antibody, V domains shown)
VH: QVQLQQSGAELARPGASVKLSCKASGYTFTSYWMQWVKQRPGQGLEWIGAIYPGDGDTRYTQKFKGKATLTADKSSSTAYMQLRSLASEDSAVFYCARGGVTTLVPYFFDYWGQGATLTVSS
VL: DVLMTQTPLSLPVSLGDQASISCRSSQSIVHSNGNTYLEWYLQKPGQSPKLLIYKVSNRFSGVPDRFSGSGSGTDFTLKISRVEAEDLGVYYCFQGSHVPPTFGGGTKLEIK
ELISA O.D. [4]: ≥ 1.5 O.D.

binding result [5]: no binding (tested: 300 nM)
binding result [1]: no binding (tested: 300 nM)
B15: P001013 (IgG) (antibody, V domains shown)
VH: EVQLLESGGGLVQPGGSLRLSCAASGFTFSGYDMSWVRQAPGKGLEWVSGIPPGDGSTYYADSVKGRFTISRDNSKNTLYLQMNSLRAEDTAVYYCAKHLVSDHPPSQYSDDGMDVWGQGTLVTVSS
VL: QSVLTQPPSASGTPGQRVTISCSGSSSNIGNNDVNWYQQLPGTAPKLLIYYNSQRPSGVPDRFSGSKSGTSASLAISGLRSEDEADYYCGSWDYSLNGYVFGGGTKLTVL
